Substrate in the data set: Nc1nc(=O)c2c([nH]1)NCC1CN(c3ccc(C(=O)N[C@@H](CCC(=O)O)C(=O)O)cc3)CN21
Nature of the data set: Michaelis-Menten constant (Km) against thymidylate synthase.

B1: Thymidylate synthase (Lactobacillus casei), P00469 (protein)
chain: MLEQPYLDLAKKVLDEGHFKPDRTHTGTYSIFGHQMRFDLSKGFPLLTTKKVPFGLIKSELLWFLHGDTNIRFLLQHRNHIWDEWAFEKWVKSDEYHGPDMTDFGHRSQKDPEFAAVYHEEMAKFDDRVLHDDAFAAKYGDLGLVYGSQWRAWHTSKGDTIDQLGDVIEQIKTHPYSRRLIVSAWNPEDVPTMALPPCHTLYQFYVNDGKLSLQLYQRSADIFLGVPFNIASYALLTHLVAHECGLEVGEFIHTFGDAHLYVNHLDQIKEQLSRTPRPAPTLQLNPDKHDIFDFDMKDIKLLNYDPYPAIKAPVAV
Regarding B1, the Km was found to be 14 µM.

As a reminder, the Km is the substrate concentration at which the rate is half of its maximum.

The values above are taken from ChEMBL document CHEMBL1148343, “Fragment-based drug discovery” (J Med Chem, 2004).
